Laboratory results from the supplement of paper PMC10567573.

B1: TMEM106C (parent)
chain: YVTTNVSLIPPRSEQLVNFTGKAE
B2: CDC25B (parent)
chain: KSPIAPCSLDKRVILIFHCEFSSE

Variants of: B1
Experiment: protein stability index of a GFP-peptide fusion (GPS, HEK-293T) (PSI 1-6); higher = more stable
Conditions: c terminus: a fixed tail appended
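Also: lentivirally expressed fusions sorted by FACS into six bins by GFP to DsRed ratio, PSI derived from sequencing read proportions per bin multiplied by bin number.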

Variant | protein stability index
YVTTNVSLIPPRSEQLVNFTGLAE [K22L] | 1.96
YVTTNVSLIPPRSEQLVNFTGGAE [K22G] | 1.89
YVTTNVSLIPPRSEQLVNFTGMAE [K22M] | 2.54
YVTTNVSLIPPRSEQLVNFTGTAE [K22T] | 2.14
YVTTNVSLIPPRSEQLVNFTGWAE [K22W] | 3.19
YVTTNVSLIPPRSEQLVNFTGNAE [K22N] | 2.04
YVTTNVSLIPPRSEQLVNFTGIAE [K22I] | 1.88
YVTTNVSLIPPRSEQLVNFTGSAE [K22S] | 1.72
YVTTNVSLIPPRSEQLVNFTGRAE [K22R] | 1.8
YVTTNVSLIPPRSEQLVNFTGPAE [K22P] | 1.76
YVTTNVSLIPPRSEQLVNFTGHAE [K22H] | 1.96
YVTTNVSLIPPRSEQLVNFTGFAE [K22F] | 2.26
YVTTNVSLIPPRSEQLVNFTGYAE [K22Y] | 1.61
YVTTNVSLIPPRSEQLVNFTGQAE [K22Q] | 1.53
YVTTNVSLIPPRSEQLVNFTGVAE [K22V] | 2.81
YVTTNVSLIPPRSEQLVNFTGKAW [E24W] | 2.93
YVTTNVSLIPPRSEQLVNFTGKAY [E24Y] | 2.7
YVTTNVSLIPPRSEQLVNFTGKAD [E24D] | 2.58
YVTTNVSLIPPRSEQLVNFTGKAG [E24G] | 1.64
YVTTNVSLIPPRSEQLVNFTGKAL [E24L] | 2.08
YVTTNVSLIPPRSEQLVNFTGKAH [E24H] | 1.49
YVTTNVSLIPPRSEQLVNFTGKAC [E24C] | 2.32
YVTTNVSLIPPRSEQLVNFTGKAF [E24F] | 2.81
YVTTNVSLIPPRSEQLVNFTGKAV [E24V] | 1.41
YVTTNVSLIPPRSEQLVNFTGKAA [E24A] | 2
YVTTNVSLIPPRSEQLVNFTGKAQ [E24Q] | 2.06
YVTTNVSLIPPRSEQLVNFTGKAM [E24M] | 2.05

Variant | protein stability index
YVTTNVSLIPPRSEQLVNFTGKAK [E24K] | 1.88
YVTTNVSLIPPRSEQLVNFTGKAS [E24S] | 2.1
YVTTNVSLIPPRSEQLVNFTGKAP [E24P] | 3.06
YVTTNVSLIPPRSEQLVNFTGKAR [E24R] | 1.48
YVTTNVSLIPPRSEQLVNFTGKAT [E24T] | 2.75
YVTTNVSLIPPRSEQLVNFTGKAI [E24I] | 2.32
YVTTNVSLIPPRSEQLVNFTGKAN [E24N] | 2.92
YVTTNVSLIPPRSEQLVNFTGKSE [A23S] | 1.54
YVTTNVSLIPPRSEQLVNFTGKDE [A23D] | 2
YVTTNVSLIPPRSEQLVNFTGKME [A23M] | 1.81
YVTTNVSLIPPRSEQLVNFTGKYE [A23Y] | 2.44
YVTTNVSLIPPRSEQLVNFTGKCE [A23C] | 1.84
YVTTNVSLIPPRSEQLVNFTGKWE [A23W] | 2.51
YVTTNVSLIPPRSEQLVNFTGKLE [A23L] | 1.31
YVTTNVSLIPPRSEQLVNFTGKFE [A23F] | 2.06
YVTTNVSLIPPRSEQLVNFTGKEE [A23E] | 1.65
YVTTNVSLIPPRSEQLVNFTGKQE [A23Q] | 1.74
YVTTNVSLIPPRSEQLVNFTGKVE [A23V] | 2.3
YVTTNVSLIPPRSEQLVNFTGKRE [A23R] | 2.4
YVTTNVSLIPPRSEQLVNFTGKNE [A23N] | 1.82
YVTTNVSLIPPRSEQLVNFTGKGE [A23G] | 1.91
YVTTNVSLIPPRSEQLVNFTGKKE [A23K] | 2.23
YVTTNVSLIPPRSEQLVNFTGKHE [A23H] | 2.47
YVTTNVSLIPPRSEQLVNFTGKIE [A23I] | 2.24
YVTTNVSLIPPRSEQLVNFTGKPE [A23P] | 1.77
YVTTNVSLIPPRSEQLVNFTGKTE [A23T] | 1.8

Variants of: B2
Experiment: as above
Conditions: c terminus: a fixed tail appended

Variant | protein stability index
KSPIAPCSLGKRVILIFHCEFSSE [D10G] | 2.74
KSPIAPCSLFKRVILIFHCEFSSE [D10F] | 2.42
KSPIAPCSLDKRVDLIFHCEFSSE [I14D] | 2.54
KSPIAPCSLDKRVGLIFHCEFSSE [I14G] | 1.56
KSPIAPCSLDKRVMLIFHCEFSSE [I14M] | 2.35
KSPIAPCSLDKRVILQFHCEFSSE [I16Q] | 1.52
KSPIAPCSLDKRVILIFHCFFSSE [E20F] | 2.05
KSPIAPCSLDKRVILIFHCCFSSE [E20C] | 4.34
KSPIAPCSLDKRVILIFHCMFSSE [E20M] | 2.51
KSPIAPCSSDKRVILIFHCEFSSE [L9S] | 2.4
KSPIAPCSLDKRVISIFHCEFSSE [L15S] | 1.86
KSPITPCSLDKRVILIFHCEFSSE [A5T] | 2.85
KSPILPCSLDKRVILIFHCEFSSE [A5L] | 2.58
KSPIIPCSLDKRVILIFHCEFSSE [A5I] | 2.65
KSPIAPCSLDKRVILIFHCEFCSE [S22C] | 1.43
KWPIAPCSLDKRVILIFHCEFSSE [S2W] | 4.11
KDPIAPCSLDKRVILIFHCEFSSE [S2D] | 3.82
KEPIAPCSLDKRVILIFHCEFSSE [S2E] | 3.4
KTPIAPCSLDKRVILIFHCEFSSE [S2T] | 3.22
KSPIAPVSLDKRVILIFHCEFSSE [C7V] | 3.75
KSPIAWCSLDKRVILIFHCEFSSE [P6W] | 3.61

Variant | protein stability index
KSPIAYCSLDKRVILIFHCEFSSE [P6Y] | 3.74
KSPIARCSLDKRVILIFHCEFSSE [P6R] | 1.89
KSPIAHCSLDKRVILIFHCEFSSE [P6H] | 2.23
KSPIAPCSLDKRVILIFHNEFSSE [C19N] | 1.32
KSPIAPCSLDKRVILIFHEEFSSE [C19E] | 1.85
KSPIAPCKLDKRVILIFHCEFSSE [S8K] | 2.88
KSPIAPCELDKRVILIFHCEFSSE [S8E] | 1.45
KSPIAPCSLDPRVILIFHCEFSSE [K11P] | 3.23
KSPIAPCSLDKRGILIFHCEFSSE [V13G] | 1.14
KSPIAPCSLDKRVILIFHCEFSSK [E24K] | 3.12
KSPPAPCSLDKRVILIFHCEFSSE [I4P] | 2.2
KSPSAPCSLDKRVILIFHCEFSSE [I4S] | 2.89
KSPFAPCSLDKRVILIFHCEFSSE [I4F] | 2.53
KSPIAPCSLDKRVILIFHCETSSE [F21T] | 3.13
KSPIAPCSLDKRVILIFHCEFSEE [S23E] | 1.73
KSPIAPCSLDKRVILIFHCEFSFE [S23F] | 4.12
KSPIAPCSLDKRVILIFHCEFSIE [S23I] | 2.64
LSPIAPCSLDKRVILIFHCEFSSE [K1L] | 1.86
ISPIAPCSLDKRVILIFHCEFSSE [K1I] | 1.11
KSPIAPCSLDKYVILIFHCEFSSE [R12Y] | 3.38
